Patent US20050182242A1, “Global analysis of protein activities using proteome chips” (priority 2001, published 2005)

Columns and labels:
Settings in all cases: liposome binding signal on yeast proteome chip, Cy3-streptavidin detection
PI(3,4,5)P3 liposomes = assay: Yeast proteome chip probed with PI(3,4,5)P3 liposomes
PI(3,4)P2 liposomes = assay: Yeast proteome chip probed with PI(3,4)P2 liposomes
PI(4,5)P2 liposomes = assay: Yeast proteome chip probed with PI(4,5)P2 liposomes
[1] = system: phosphatidylcholine (PC) liposomes; assay: Yeast proteome chip probed with PC liposomes
Procedure, shortened: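 Yeast proteome chips incubated 1 h at RT with sonicated liposomes of PC containing 1% (w/w) biotin-DHPE, plus 5% (w/w) of the indicated phosphoinositide where applicable. After PBS washes, bound liposomes detected with Cy3- or Cy5-streptavidin (>30 min, RT, dark) and fluorescence scanned.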

PI(4)P liposomes = assay: Yeast proteome chip probed with PI(4)P liposomes
PI(3)P liposomes = assay: Yeast proteome chip probed with PI(3)P liposomes

B1: VMA13: yeast GST-HisX6 fusion protein on proteome chip (protein, UniProt P41807 2-478, looked up)
V-type proton ATPase subunit H: GATKILMDSTHFNEIRSIIRSRSVAWDALARSEELSEIDASTAKALESILVKKNIGDGLSSSNNAHSGFKVNGKTLIPLIHLLSTSDNEDCKKSVQNLIAELLSSDKYGDDTVKFFQEDPKQLEQLFDVSLKGDFQTVLISGFNVVSLLVQNGLHNVKLVEKLLKNNNLINILQNIEQMDTCYVCIRLLQELAVIPEYRDVIWLHEKKFMPTLFKILQRATDSQLATRIVATNSNHLGIQLQYHSLLLIWLLTFNPVFANELVQKYLSDFLDLLKLVKITIKEKVSRLCISIILQCCSTRVKQHKKVIKQLLLLGNALPTVQSLSERKYSDEELRQDISNLKEILENEYQELTSFDEYVAELDSKLLCWSPPHVDNGFWSDNIDEFKKDNYKIFRQLIELLQAKVRNGDVNAKQEKIIIQVALNDITHVVELLPESIDVLDKTGGKADIMELLNHSDSRVKYEALKATQAIIGYTFK
modifications: GST-His6 tag
notes: yeast GST-HisX6 fusion protein on proteome chip
- PI(3, 4, 5)P3 (PI(3,4,5)P3 liposomes): 28.12
- PI(3, 4)P2 (PI(3,4)P2 liposomes): 44.27
- PI(4, 5)P2 (PI(4,5)P2 liposomes): 34.40
- PC [1]: 45.78
- PI(4)P (PI(4)P liposomes): 16.55
- PI(3)P (PI(3)P liposomes): 11.50

B2: APA2: yeast GST-HisX6 fusion protein on proteome chip (protein, UniProt P22108 1-325, looked up)
Diadenosine …: MIEENLKQKIHDKFVAAKKNGHLKVTHAESKKLKDPQTTTQYWVTFAPSLALKPDANKNSDSKAEDPFANPDEELVVTEDLNGDGEYKLLLNKFPVVPEHSLLVTSEFKDQRSALTPSDLMTAYNVLCSLQGDKDDDVTCERYLVFYNCGPHSGSSQDHKHLQIMQMPEKFIPFQDVLCNGKDHFLPTFNAEPLQDDKVSFAHFVLPLPESSDQVDEDLLAMCYVSLMQRALTFFQDWTNESPELTKSYNVLLTKKWICVVPRSHAKSGPPLMLNINSTGYCGMILVKDREKLENLTEDPHLVDKSLLQCGFPNTAGQKPTEYHY
modifications: GST-His6 fusion tag
notes: as for B1
- PI(3, 4, 5)P3 (PI(3,4,5)P3 liposomes): 40.05
- PI(3, 4)P2 (PI(3,4)P2 liposomes): 31.40
- PI(4, 5)P2 (PI(4,5)P2 liposomes): 34.84
- PC [1]: 42.26
- PI(4)P (PI(4)P liposomes): 43.98
- PI(3)P (PI(3)P liposomes): 22.50

B3: SAS3: yeast GST-HisX6 fusion protein on proteome chip (protein, UniProt P34218 1-831, looked up)
Histone acetyltransferase SAS3: MSLTANDESPKPKKNALLKNLEIDDLIHSQFVRSDTNGHRTTRRLFNSDASISHRIRGSVRSDKGLNKIKKGLISQQSKLASENSSQNIVNRDNKMGAVSFPIIEPNIEVSEELKVRIKYDSIKFFNFERLISKSSVIAPLVNKNITSSGPLIGFQRRVNRLKQTWDLATENMEYPYSSDNTPFRDNDSWQWYVPYGGTIKKMKDFSTKRTLPTWEDKIKFLTFLENSKSATYINGNVSLCNHNETDQENEDRKKRKGKVPRIKNKVWFSQIEYIVLRNYEIKPWYTSPFPEHINQNKMVFICEFCLKYMTSRYTFYRHQLKCLTFKPPGNEIYRDGKLSVWEIDGRENVLYCQNLCLLAKCFINSKTLYYDVEPFIFYILTEREDTENHPYQNAAKFHFVGYFSKEKFNSNDYNLSCILTLPIYQRKGYGQFLMEFSYLLSRKESKFGTPEKPLSDLGLLTYRTFWKIKCAEVLLKLRDSARRRSNNKNEDTFQQVSLNDIAKLTGMIPTDVVFGLEQLQVLYRHKTRSLSSLDDFNYIIKIDSWNRIENIYKTWSSKNYPRVKYDKLLWEPIILGPSFGINGMMNLEPTALADEALTNETMAPVISNNTHIENYNNSRAHNKRRRRRRRSSEHKTSKLHVNNIIEPEVPATDFFEDTVSSLTEYMCDYKNTNNDRLIYQAEKRVLESIHDRKGIPRSKFSTETHWELCFTIKNSETPLGNHAARRNDTGISSLEQDEVENDVDTELYVGENAKEDEDEDEDFTLDDDIEDEQISEENDEEEDTYEEDSDDDEDGKRKGQEQDENDIESHIRKERVRKRRKITLIEDDEE
modifications: GST-His6 tag
notes: as for B1
- PI(3, 4, 5)P3 (PI(3,4,5)P3 liposomes): 18.68
- PI(3, 4)P2 (PI(3,4)P2 liposomes): 55.57
- PI(4, 5)P2 (PI(4,5)P2 liposomes): 17.85
- PC [1]: 54.00
- PI(4)P (PI(4)P liposomes): 16.55
- PI(3)P (PI(3)P liposomes): 2.00

B4: SGA1: yeast GST-HisX6 fusion protein on proteome chip (protein, UniProt P08019 1-549, looked up)
Glucoamylase, intracellular …: MARQKMFYNKLLGMLSVGFGFAWALENITIYEFDFGKGILDQSYGGVFSNNGPSQVQLRDAVLMNGTVVYDSNGAWDSSALEEWLQGQKKVSIEKIFENIGPSAVYPSISPGVVIASPSQTHPDYFYQWIRDSALTINSIVSHSAGPAIETLLQYLNVSFHLQRSNNTLGAGIGYTNDTVALGDPKWNVDNTAFTEDWGRPQNDGPALRSIAILKIIDYIKQSGTDLGAKYPFQSTADIFDDIVRWDLRFIIDHWNSSGFDLWEEVNGMHFFTLLVQLSAVDKSLSYFNASERSSPFVEELRQTRRDISKFLVDPANGFINGKYNYIVGTPMIADTLRSGLDISTLLAANTVHDAPSASHLPFDINDPAVLNTLHHLMLHMRSIYPINDSSKNATGIALGRYPEDVYDGYGFGEGNPWVLATCTASTTLYQLIYRHISEQHDLVVPMNNDCSNAFWSELVFSNLTTLGNDEGYLILEFNTPAFNQTIQKIFQLADSFLVKLKAHVGTDGELSEQFNKYTGFMQGAQHLTWSYTSFWDAYQIRQEVLQSL
modifications: GST-HisX6 tag
notes: as for B1
- PI(3, 4, 5)P3 (PI(3,4,5)P3 liposomes): 26.55
- PI(3, 4)P2 (PI(3,4)P2 liposomes): 60.59
- PI(4, 5)P2 (PI(4,5)P2 liposomes): 6.75
- PC [1]: 52.83
- PI(4)P (PI(4)P liposomes): 41.15
- PI(3)P (PI(3)P liposomes): 16.50

B5: PCL6: yeast GST-HisX6 fusion protein on proteome chip (protein, UniProt P40038 1-420, looked up)
PHO85 cyclin-6: MSIKGDSPSSTNASSSPKSTYSIQSDDKANLGSGNVDIRTDNSQQDSNNRRDIVVVTRVASEETLESQSSTSSMGIRPESSFNYEDASNQARVEMNNRVHGSNMNTINKYYPVRFPKNNERQLSDTNNLNEKVQGTHTVQSSTQEDKILDGDTSNSQVTPSLNIAEFPTDKLLKMLTALLTKIIKSNDRTAATNPSLTQEIENGRCLALSDNEKKYLSPVLGFRGKHVPQIGLDQYFQRIQKYCPTTNDVFLSLLVYFDRISKRCNSVTTTPKTNTAKHESPSNESSLDKANRGADKMSACNSNENNENDDSDDENTGVQRDSRAHPQMFVMDSHNIHRLIIAGITVSTKFLSDFFYSNSRYSRVGGISLQELNHLELQFLVLCDFELLISVNELQRYADLLYRFWNNAKAQSQALVTGM
modifications: GST-His6 fusion tag
notes: as for B1
- PI(3, 4, 5)P3 (PI(3,4,5)P3 liposomes): 26.89
- PI(3, 4)P2 (PI(3,4)P2 liposomes): 26.84
- PI(4, 5)P2 (PI(4,5)P2 liposomes): 3.70
- PC [1]: 31.70
- PI(4)P (PI(4)P liposomes): 8.06
- PI(3)P (PI(3)P liposomes): 9.00

B6: MUM2: yeast GST-HisX6 fusion protein on proteome chip (protein, UniProt P38236 1-366, looked up)
Protein MUM2: MNYMAYDYDPQHSLETSFNNLAFHPHQQSQQQALYESGERNDARPGLMNTLGQASKMNNSMLPQGSSASPLTGQHSLNSTTNFNMPPSMNTYNYQNVPQASMRNTLNHNNIMNGATANDYWLDPMNNMTNNKDTNGNPNDSMSSMSNMTAKTSINSTAFKNSFVPFNHVTALSMNNVNSNEMNSNKDDRMEALEVELQIKESQIESLENEIQRLKKIFNEGLNYKQNEHKYEKENCHIPQTFELPASLEVIFRKLSSSLHAKEKELAETKENLESILTALALNPTNSVTKYGRYDAESIAHKMVVRLENLTNENKEMAKMLAYGRSKETQIELQLAKKENLELREKIASLEAHLASKESSKEDVAN
modifications: GST-His6 fusion tag
notes: as for B1
- PI(3, 4, 5)P3 (PI(3,4,5)P3 liposomes): 63.34
- PI(3, 4)P2 (PI(3,4)P2 liposomes): 49.29
- PI(4, 5)P2 (PI(4,5)P2 liposomes): 38.76
- PC [1]: 46.66
- PI(4)P (PI(4)P liposomes): 90.15
- PI(3)P (PI(3)P liposomes): 81.50

B7: GPA2: yeast GST-HisX6 fusion protein on proteome chip (protein, UniProt P10823 2-449, looked up)
Guanine nucleotide-binding …: GLCASSEKNGSTPDTQTASAGSDNVGKAKVPPKQEPQKTVRTVNTANQQEKQQQRQQQPSPHNVKDRKEQNGSINNAISPTATANTSGSQQINIDSALRDRSSNVAAQPSLSDASSGSNDKELKVLLLGAGESGKSTVLQQLKILHQNGFSEQEIKEYIPLIYQNLLEIGRNLIQARTRFNVNLEPECELTQQDLSRTMSYEMPNNYTGQFPEDIAGVISTLWALPSTQDLVNGPNASKFYLMDSTPYFMENFTRITSPNYRPTQQDILRSRQMTSGIFDTVIDMGSDIKMHIYDVGGQRSERKKWIHCFDNVTLVIFCVSLSEYDQTLMEDKNQNRFQESLVLFDNIVNSRWFARTSVVLFLNKIDLFAEKLSKVPMENYFPDYTGGSDINKAAKYILWRFVQLNRANLSIYPHVTQATDTSNIRLVFAAIKETILENTLKDSGVLQ
modifications: GST-His6 tag
notes: as for B1
- PI(3, 4, 5)P3 (PI(3,4,5)P3 liposomes): 13.05
- PI(3, 4)P2 (PI(3,4)P2 liposomes): 119.93
- PI(4, 5)P2 (PI(4,5)P2 liposomes): 44.85
- PC [1]: 39.33
- PI(4)P (PI(4)P liposomes): 87.31
- PI(3)P (PI(3)P liposomes): −50.50

B8: TFB3: yeast GST-HisX6 fusion protein on proteome chip (protein, UniProt Q03290 1-321, looked up)
RNA polymerase II …: MLMDEYEENKDMCPICKTDRYLSPDVKFLVNPECYHRICESCVDRIFSLGPAQCPYKGCDKILRKNKFKTQIFDDVEVEKEVDIRKRVFNVFNKTIDDFNGDLVEYNKYLEEVEDIIYKLDHGIDVAKTEEKLRTYEELNKQLIMNNLERSRTEIESFEQRQKFEKEMKLKKRLLERQIEEEERMNKEWTKKEIVNRLSTTTQDINETIEGVKNTVKLKKSSARRKLEELNRVLKNNPYFNSNVNVQNSRLKDAVPFTPFNGDREAHPRFTLKGSVYNDPFIKDLEHRKEFIASGFNTNYAYERVLTEAFMGLGCVISEEL
modifications: GST-His6 tag
notes: as for B1
- PI(3, 4, 5)P3 (PI(3,4,5)P3 liposomes): 27.45
- PI(3, 4)P2 (PI(3,4)P2 liposomes): 47.72
- PI(4, 5)P2 (PI(4,5)P2 liposomes): 37.23
- PC [1]: 37.86
- PI(4)P (PI(4)P liposomes): 43.98
- PI(3)P (PI(3)P liposomes): 71.00
